The subject of this series is DQ elastin. In words: In vitro elastin degradation assay. In kind it is biochemical. The protocol:
Therefore, studies were performed to determine whether HTRA1 degrades elastin, a major component of Bruch's membrane. Recombinant HTRA1 was incubated with dye-labeled elastin at 37° C. for two hrs and the fluorescence of the released elastin peptides was monitored at 513 nm. […] In an additional positive control assay, HTRA1 elastase activity was measured by fluorescence using various concentrations of elastase enzyme starting with 0.04 ng/well of porcine pancreatic elastase and 100 ng/well of Protealmmun HtrA1. DQ Elastin substrate was 25 ug/ml.
Recombinant HtrA1 protein expressed and purified from Sf9 cells was purchased from Protealmmun (Cat. #30600103). The HtrA1 elastase activity was measured using a fluorescent EnzChekElastase Assay Kit from Invitrogen (Cat. #E12056) using the protocol provided, except substrate concentration was 12.50 ? g/mL. HtrA1 concentration was titrated from 200-12.5 ng/well in two-fold dilutions. Activity was measured in 30-minute increments for a total of 2 hours.
The explanation for the elastin degradation in both the Bruch's membrane and the choroid vessels in the HTRA1 mice is that the protease activity of overexpressed HTRA1, which is secreted from RPE, caused the degeneration. Since HTRA1 was not known to have elastase activity, an in vitro elastin degradation assay was performed using DQ elastin, a soluble elastin labeled with quenched BODIPY FL dye, as a substrate. Purified recombinant human HTRA1 degraded elastin with a specific activity of 4.4±0.8 u/mg (n=3). […] To eliminate the possibility that the depletion of the elastic layers of the choroidal vessels and Bruch's membrane was the result of downregulation of elastin expression, we analyzed the protein level of soluble elastin in the RPE/choroid of hHTRA1^+ and WT mice by western blot. […] This is similar to what has been observed in human donors with AMD and with aberrant choriocapillaris lobules.

For the substance “porcine pancreas elastase: reference elastase enzyme [reference compound]”, where the note is “DQ elastin substrate”, the Elastase specific activity came to 135±5.5 u/mg.
“recombinant human HTRA1: purified recombinant human HTRA1 serine protease”: the “Degradation of dye-labeled elastin” value (37° C. for two hrs, fluorescence at 513 nm) is “degraded dye-labeled elastin”. Also, where the note is “DQ elastin substrate”, the “Elastase activity, times less than porcine pancreas elastase” value was around 30 times and the Elastase specific activity amounted to 4.4±0.8 u/mg.

Values taken from patent US20210353712A1, “METHODS OF DIAGNOSING AND TREATING VASCULAR ASSOCIATED MACULOPATHY AND SYMPTOMS THEREOF” (University of Utah Research Foundation, priority 2011, published 2021).
